From paper doi:10.1101/2020.04.16.045419 (bioRxiv, 2020) come the findings set out here.

The chains are these.
B1: Sb#66 (VHH)
VHH: QVQLVESGGGSVQAGGSLRLSCAASGSIQAITYLGWFRQAPGKEREGVAALVTWNGQTYYADSVKGRFTVSLDNAKNTVYLQMNSLKPEDTALYYCAAADWGYDWPLWDEWYWYWGQGTQVTVS
B2: Sb#58 (VHH)
VHH: QVQLVESGGGSVQAGGSLRLSCAASGNISTIEYLGWFRQAPGKEREGVAALYTWHGQTYYADSVKGRFTVSLDNAKNTVYLQMNSLKPEDTALYYCAAARWGRHMPLSATEYSYWGQGTQVTVS
B3: Sb#50 (VHH)
VHH: QVQLVESGGGSVQAGGSLRLSCAASGYIDKIVYLGWFRQAPGKEREGVAALYTLSGHTYYADSVKGRFTVSLDNAKNTVYLQMNSLKPEDTALYYCAAATEGHAHALYRLHYYWGQGTQVTVS
B4: Sb#56 (VHH)
VHH: QVQLVESGGGSVQAGGSLRLSCAASGNISQIHYLGWFRQAPGKEREGVAALNTDYGYTYYADSVKGRFTVSLDNAKNTVYLQMNSLKPEDTALYYCAAAYYFGDDIPLWWEAYSYWGQGTQVTVS
B5: Sb#52 (VHH)
VHH: QVQLVESGGGSVQAGGSLRLSCAASGNIQRIYYLGWFRQAPGKEREGVAALMTYTGHTYYADSVKGRFTVSLDNAKNTVYLQMNSLKPEDTALYYCAAAYVGAENPLPYSMYGYWGQGTQVTVS
B6: Sb#67 (VHH)
VHH: QVQLVESGGGSVQAGGSLRLSCAASGSISSITYLGWFRQAPGKEREGVAALVTYSGNTYYADSVKGRFTVSLDNAKNTVYLQMNSLKPEDTALYYCAAATWGHSWPLYNDEYWYWGQGSQVTVS
B7: Sb#51 (VHH)
VHH: QVQLVESGGGLVQAGGSLRLSCAASGFPVYQGEMHWYRQAPGKEREWVAAIRSTGVQTWYADSVKGRFTISRDNAKNTVYLQMNSLKPEDTAVYYCRVWVGTHYFGQGTQVTVS
B8: Sb#69 (VHH)
VHH: QVQLVESGGGSVQAGGSLRLSCAASGSISSITYLGWFRQAPGKEREGVAALNTFNGTTYYADSVKGRFTVSLDNAKNTVYLQMNSLKPEDTALYYCAAATWGYSWPLIAEYNWYWGQGTQVTVS
B9: Sb#71 (VHH)
VHH: B8 VHH with N52K, F54Q, N55A, T57F, T100N, I108Y, A109E, E110A, Y111D, N112D
B10: Sb#59 (VHH)
VHH: QVQLVESGGGSVQAGGSLRLSCAASGNIESIYYLGWFRQAPGKEREGVAALWTGDGETYYADSVKGRFTVSLDNAKNTVYLQMNSLKPEDTALYYCAAAAWGNSAPLTTYRYYYWGQGTQVTVS
B11: Sb#64 (VHH)
VHH: QVQLVESGGGSVQAGGSLRLSCAASGEIESIFYLGWFRQAPGKEREGVAALYTYVGQTYYADSVKGRFTVSLDNAKNTVYLQMNSLKPEDTALYYCAAASYGAAHPLSIMRYYYWGQGTQVTVS
B12: Sb#53 (VHH)
VHH: QVQLVESGGGSVQAGGSLRLSCAASGQISHIKYLGWFRQAPGKEREGVAALITRWGQTYYADSVKGRFTVSLDNAKNTVYLQMNSLKPEDTALYYCAAADYGASDPLWFIHYLYWGQGTQVTVS
B13: Sb#62 (VHH)
VHH: QVQLVESGGGSVQAGGSLRLSCAASGTIADIKYLGWFRQAPGKEREGVAALMTRWGSTYYADSVKGRFTVSLDNAKNTVYLQMNSLKPEDTALYYCAAANYGANYPLYSQQYSYWGQGTQVTVS
B14: Sb#65 (VHH)
VHH: B13 VHH with D30H, R54K, S57Q, N100S, Y105F, Y108K, S109A, Q110S, Q111D
B15: Sb#63 (VHH)
VHH: B13 VHH with T27S, A29S, D30S, S57M, Y105E, Y108Q, S109Y, Q110T, Q111H, S113N
B16: Sb#48 (VHH)
VHH: QVQLVESGGGLVQAGGSLRLSCAASGFPVSQSVMAWYRQAPGKEREWVAAIYSKGQYTHYADSVKGRFTISRDNAKNTVYLQMNSLKPEDTAVYYCNVKDAGSSYWDYDYWGQGTQVTVS
B17: Sb#55 (VHH)
VHH: QVQLVESGGGSVQAGGSLRLSCAASGKIWTIKYLGWFRQAPGKEREGVAALMTRWGYTYYADSVKGRFTVSLDNAKNTVYLQMNSLKPEDTALYYCAAANYGSNFPLAEEDYWYWGQGTQVTVS
B18: Sb#49 (VHH)
VHH: QVQLVESGGGSVQAGGSLRLSCAASGSIGQIEYLGWFRQAPGKEREGVAALNTWTGRTYYADSVKGRFTVSLDNAKNTVYLQMNSLKPEDTALYYCAAARWGRTKPLNTYYYSYWGQGTPVTVS

Substitutions are numbered along the chain they refer to.

This assay addresses SARS-CoV-2 RBD construct consisting of residues Pro330-Gly526 fused to Venus YFP (RBD-vYFP) (SARS-CoV-2, UniProt P0DTC2).
In the case of B1, the binding result was “binds”.
To B2 belongs “binds”; to B3, “binds”; to B4, “binds”.
In the case of B5, the binding result is reported as “binds”.
On to B6, for which the binding result is given as “binds”.
As for B7, the binding result is “binds”.
As for B8, the binding result was “binds”.
With B9, the binding result is “binds”.
In the case of B10, the binding result is listed as “binds”.
The same measure for B11: “binds”; for B12: “binds”.
Take B13: the binding result is “binds”.
The same measure for B14: “binds”; for B15: “binds”.
Consider B16, for which the binding result is given as “binds”.
B17: the binding result is “binds”.
For B18, the binding result was “binds”.
